{
  "source": "paper PMC11550248",
  "molecular_target": "voltage-dependent anion-selective channel 1 (VDAC1), purified from rat liver mitochondria (rat) (UniProt Q9Z2L0)",
  "test": "MST; VDAC1 (138 nM) or MAVS (105 nM) fluorescently labeled and kept constant, tested protein at different concentrations; 20mM Tris-HCl, 200mM NaCl, pH 8; 30 min at 37°C in the dark; Monolith NT.115, LED 20%, IR laser 80%",
  "data": [
    {"substance": "SARS-CoV-2 small envelope E-protein, purified (from UniProt P0DTC4 1-75) (natural protein)", "values": [
      {"measurement": "C50 (half maximal binding)", "result": 1100, "unit": "nM"}
    ]}
  ]
}
